Laboratory results published in publication PMC6311151 (Biochimica et biophysica acta. Molecular and cell biology …, 2018).

Target: the molecule itself
Assay: SEC

B1: Gloeobacter ligand-gated ion channel (natural protein)
chain: QDMVSPPPPIADEPLTVNTGIYLIECYSLDDKAETFKVNAFLSLSWKDRRLAFDPVRSGVRVKTYEPEAIWIPEIRFVNVENARDADVVDISVSPDGTVQYLERFSARVLSPLDFRRYPFDSQTLHIYLIVRSVDTRNIVLAVDLEKVGKNDDVFLTGWDIESFTAVVKPANFALEDRLESKLDYQLRISRQYFSYIPNIILPMLFILFISWTAFWSTSYEANVTLVVSTLIAHIAFNILVETNLPKTPYMTYTGAIIFMIYLFYFVAVIEVTVQHYLKVESQPARAASITRASRIAFPVVFLLANIILAFLFFGF
stoichiometry N: 5
